T1: CXCL5_HUMAN (human, UniProt P42830 41-114)
T1 sequence: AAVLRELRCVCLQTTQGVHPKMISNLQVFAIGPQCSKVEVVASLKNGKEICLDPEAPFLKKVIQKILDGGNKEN

T2: CXCL6_HUMAN (human, UniProt P80162 38-114)
T2 sequence: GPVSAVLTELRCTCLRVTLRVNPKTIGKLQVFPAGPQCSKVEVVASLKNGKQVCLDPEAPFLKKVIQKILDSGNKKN

T3: CXCL8_HUMAN (human, UniProt P10145 28-99)
T3 sequence: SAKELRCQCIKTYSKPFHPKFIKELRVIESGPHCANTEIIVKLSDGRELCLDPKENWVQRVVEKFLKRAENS

T4: CXCL10_HUMAN (human, UniProt P02778 22-98)
T4 sequence: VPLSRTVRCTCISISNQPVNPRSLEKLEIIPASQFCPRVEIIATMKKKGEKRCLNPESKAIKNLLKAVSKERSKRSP

T5: CXCL14_HUMAN (human, UniProt O95715 35-111)
T5 sequence: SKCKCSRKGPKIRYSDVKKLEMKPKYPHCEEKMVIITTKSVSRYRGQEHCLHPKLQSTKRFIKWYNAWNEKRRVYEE

T6: CXCL13_HUMAN (human, UniProt O43927 23-109)
T6 sequence: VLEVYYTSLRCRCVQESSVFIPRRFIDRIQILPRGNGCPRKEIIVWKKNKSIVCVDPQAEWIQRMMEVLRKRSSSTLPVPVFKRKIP

T7: P1134_IXORI (Ixodes ricinus, UniProt A0A0K8RAI0 32-135)
T7 sequence: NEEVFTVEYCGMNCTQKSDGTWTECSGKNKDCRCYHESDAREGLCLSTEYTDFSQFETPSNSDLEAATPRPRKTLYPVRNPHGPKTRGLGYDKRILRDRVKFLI

T8: CXCL11_HUMAN (human, UniProt O14625 22-94)
T8 sequence: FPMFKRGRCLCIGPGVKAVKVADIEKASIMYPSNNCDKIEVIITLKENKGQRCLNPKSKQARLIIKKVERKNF

T9: CXCL1_HUMAN (human, UniProt P09341 35-107)
T9 sequence: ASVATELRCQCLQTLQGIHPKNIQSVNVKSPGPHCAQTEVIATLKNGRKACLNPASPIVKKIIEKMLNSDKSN

T10: CCL5_HUMAN (human, UniProt P13501 24-91)
T10 sequence: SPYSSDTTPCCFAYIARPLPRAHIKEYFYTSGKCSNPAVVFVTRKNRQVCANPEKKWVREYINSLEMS

T11: CXCL7_HUMAN (human, UniProt P02775 59-128)
T11 sequence: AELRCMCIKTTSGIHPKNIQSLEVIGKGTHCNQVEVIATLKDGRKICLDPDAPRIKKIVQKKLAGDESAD

T12: CXCL4_HUMAN (human, UniProt P02776 32-101)
T12 sequence: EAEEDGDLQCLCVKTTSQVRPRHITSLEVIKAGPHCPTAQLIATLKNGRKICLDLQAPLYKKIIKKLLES

B1: P1170_IXORI (other)
chain: LGDEDQLFSVEYCGTNCTQQDDGKWTPCSGKNGKCKCYHEDGKRYGLCLYTEYTDFSQYPNPEGSEIENTRPRP
B2: P1174_IXORI (other)
chain: LNNENELFSVEYCGANCTQQDNGSWTKCKGNCTCYHEDGKRYGLCLSTEYTDFTQFPKPTSEEIADASPRPKETNSH
B3: CXCL9_HUMAN (ligand)
chain: TPVVRKGRCSCISTNQGTIHLQSLKDLKQFAPSPSCEKIEIIATLKNGVQTCLNPDSADVKELIKKWEKQVSQKKKQKNGKKHQKKKVLKVRKSQRSRQKKTT
B4: P1128_IXORI (other)
chain: KDDEHFSVDYCGMNCTQQEDGSWTACSGRNEECRCYHESGKKNGLCLSTTYIDFSQYGNPSDSDIAAASPRP
B5: P1127_IXORI (other)
chain: AGKDDEHFSVDYCGMNCTQQEDGSWTACSGRNGECRCYHESGKRSGLCLSTTYIDFSEYGNLSDSDIAAASPRLSMKESH
B6: P1168_IXORI (other)
chain: GQDTDGKEKSDEYELFTVEYCGTNCTQLENGSWTACTGKNGTCRCFHENDKKVGLCLSTEYTDFSEYPDPNSEEIKAASPLP
B7: P1063_AMBTR (other)
chain: QSEVGKNVPGCGDTETLEAPPQEKPPYYEYKDEEGCTQKVLESWFQAGERSTGRGQKKRGHGRRPSRVLRTVDCRKNCTVGITALPDGHLCLVPRGDPFTRGGAIKYGCYLGDCASGHCQHRYETVSCRLPAPDTTAKPYYVTPEK
B8: CCL23_HUMAN (ligand)
chain: RVTKDAETEFMMSKLPLENPVLLDRFHATSADCCISYTPRSIPCSLLESYFETNSECSKPGVIFLTKKGRRFCANPSDKQVQVCMRMLKLDTRIKTRKN
B9: P1090_IXORI (other)
chain: GSKELSGPESSENSIEAAFCDTNCTEGTDGVWSGCSAGCFCVHVGNSTVGRCMTFNGVDGG

One assay addresses T1, CXCL5_HUMAN. In words: BLI [Cont.].
Another assay has as its target T2, CXCL6_HUMAN. Nature of the assay: BLI [Cont.].
For assay [1], the target named is T3, CXCL8_HUMAN. In words: yeast surface display FACS re-test.
Another assay has as its target T4, CXCL10_HUMAN. In words: BLI.
A further assay concerns the target CXCL12_HUMAN (human, UniProt P48061 22-89). In words: BLI.
The target of a further assay is T5, CXCL14_HUMAN. In words: BLI.
For the assay “CXCL9_HUMAN”, the target named is B3. In words: BLI.
A further assay has as its target T6, CXCL13_HUMAN. In words: BLI.
Another assay deals with T7, P1134_IXORI. In words: BLI.
The target of assay [2] is T8, CXCL11_HUMAN. Nature of the assay: BLI.
In another assay the target is T9, CXCL1_HUMAN. In words: yeast surface display FACS re-test.
A further assay concerns the target T10, CCL5_HUMAN. Nature of the assay: yeast surface display FACS.
In the next assay the target is BK1.1FITC. In words: fluorescence polarisation, 50 nM peptide.
In another assay the target is T11, CXCL7_HUMAN. Nature of the assay: BLI [Cont.].
Another assay has as its target T12, CXCL4_HUMAN. Nature of the assay: BLI [Cont.].
The target in assay [3] is T3, CXCL8_HUMAN. Nature of the assay: BLI [Cont.].
In assay [4] the target is T8, CXCL11_HUMAN. Nature of the assay: yeast surface display FACS re-test.

Chain of CXCL12_HUMAN (P48061 22-89 limits assumed): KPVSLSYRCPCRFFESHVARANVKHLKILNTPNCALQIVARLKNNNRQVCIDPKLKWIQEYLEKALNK

For the molecule B1, the binding result with CXCL5_HUMAN, in the assay with CXCL6_HUMAN, in the assay with CXCL10_HUMAN, with CXCL12_HUMAN, in the assay with CXCL14_HUMAN and with CXCL9_HUMAN was “no binding (tested: 300 nM)” each time. The binding result with CXCL13_HUMAN is given as “no binding (tested: 300 nM)”. Moreover, the “% cells over threshold fluorescence” value with CXCL8_HUMAN [1] came out at 81%.
Turning to B2, the binding result in the assay with CXCL6_HUMAN, with CXCL10_HUMAN, in the assay with CXCL12_HUMAN, in the assay with CXCL14_HUMAN, in the assay with CXCL9_HUMAN and with CXCL13_HUMAN was “no binding (tested: 300 nM)” throughout. Moreover, the “% cells over threshold fluorescence” value in the assay with CXCL8_HUMAN [1] came out at 29%.
For the molecule B3, the binding result with P1134_IXORI was “no binding (tested: 300 nM)”.
Regarding B4, the binding result in the assay with CXCL6_HUMAN, in the assay with CXCL10_HUMAN, with CXCL12_HUMAN, in the assay with CXCL14_HUMAN, with CXCL11_HUMAN [2] and with CXCL9_HUMAN was “no binding (tested: 300 nM)” throughout. Besides, the binding result in the assay with CXCL13_HUMAN was “no binding (tested: 300 nM)”. For the same molecule, the “% cells over threshold fluorescence” value in the assay with CXCL8_HUMAN [1] is 53%.
B5: in the assay with CXCL8_HUMAN [1], the “% cells over threshold fluorescence” value was 43%. Further, the binding result with CXCL12_HUMAN, with CXCL9_HUMAN and in the assay with CXCL13_HUMAN was “no binding (tested: 300 nM)” in each case.
For the molecule B6, the figures for the “% cells over threshold fluorescence” value in the assay with CXCL1_HUMAN and with CXCL8_HUMAN [1] were 66% and 24%, respectively. Also, the binding result with CXCL12_HUMAN, with CXCL9_HUMAN and in the assay with CXCL13_HUMAN was “no binding (tested: 300 nM)” throughout.
Regarding B7, the binding result with CCL5_HUMAN was “binds”.
On to B8, for which the binding result with BK1.1FITC is “no binding (tested: 1 µM)”.
Molecule B9 registered an equilibrium dissociation constant (Kd) with CXCL5_HUMAN of 43 nM. The binding result with CXCL7_HUMAN, with CXCL4_HUMAN, in the assay with CXCL8_HUMAN [3], in the assay with CXCL12_HUMAN, in the assay with CXCL14_HUMAN and with CXCL9_HUMAN was “no binding (tested: 300 nM)” each time. Also, the “% cells over threshold fluorescence” value with CXCL11_HUMAN [4] is 32%.
